The text below walks through data of patent US20150110760A1.

One assay has as its target B7-H6 (human) (UniProt Q68D85). Description: cell-based or functional assay.
Assay [1] addresses NKp30 ligands on human dendritic cells (iDCs and mDCs). Description: cell-based or functional assay.

Sequence of UniProt Q68D85 (Q68D85 25-454): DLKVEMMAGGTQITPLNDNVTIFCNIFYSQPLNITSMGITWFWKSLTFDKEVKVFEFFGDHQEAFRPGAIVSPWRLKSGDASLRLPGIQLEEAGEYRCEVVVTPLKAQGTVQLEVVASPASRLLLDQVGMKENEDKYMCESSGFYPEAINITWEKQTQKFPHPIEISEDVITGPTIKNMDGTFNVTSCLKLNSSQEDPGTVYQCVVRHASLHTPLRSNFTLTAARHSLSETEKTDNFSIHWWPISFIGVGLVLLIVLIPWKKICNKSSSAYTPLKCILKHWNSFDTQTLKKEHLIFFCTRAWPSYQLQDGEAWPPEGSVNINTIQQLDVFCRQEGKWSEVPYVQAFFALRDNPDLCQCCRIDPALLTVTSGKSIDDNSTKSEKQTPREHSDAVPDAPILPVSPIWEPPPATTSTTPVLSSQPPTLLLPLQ

Consider NKp30-CD3ζ chimeric receptor, for which the specific lysis of RMA/B7-H6 cells by transduced mouse T cells, 5-h LDH release, E:T 1:1 in the assay with B7-H6 (human) amounted to 80%.

Turning to NKp30-CD28-CD3ζ chimeric receptor, the specific lysis of RMA/B7-H6 cells by transduced mouse T cells, 5-h LDH release, E:T 1:1 with B7-H6 (human) was 80%. In assay [1], this substance gave an IFN-γ production by transduced human T cells after 24 h coculture with iDCs or mDCs (5:1), ELISA of 200 to 800 pg/mL.
